Measurements reported in ChEMBL document CHEMBL2074458, “Fluorescence-based assay for the interaction of small molecules with the human renal organic anion transporter 1” (Anal Biochem, 2000).

Substrate: O=C(O)c1ccc(C(=O)O)c(-c2c3ccc(=O)cc-3oc3cc(O)ccc23)c1
Test: TP_TRANSPORTER: uptake in OAT1-expressing CHO cells
Format: functional, cell-based

B1: Solute carrier family 22 member 6 (Homo sapiens) (protein)
chain: MAFNDLLQQVGGVGRFQQIQVTLVVLPLLLMASHNTLQNFTAAIPTHHCRPPADANLSKNGGLEVWLPRDRQGQPESCLRFTSPQWGLPFLNGTEANGTGATEPCTDGWIYDNSTFPSTIVTEWDLVCSHRALRQLAQSLYMVGVLLGAMVFGYLADRLGRRKVLILNYLQTAVSGTCAAFAPNFPIYCAFRLLSGMALAGISLNCMTLNVEWMPIHTRACVGTLIGYVYSLGQFLLAGVAYAVPHWRHLQLLVSAPFFAFFIYSWFFIESARWHSSSGRLDLTLRALQRVARINGKREEGAKLSMEVLRASLQKELTMGKGQASAMELLRCPTLRHLFLCLSMLWFATSFAYYGLVMDLQGFGVSIYLIQVIFGAVDLPAKLVGFLVINSLGRRPAQMAALLLAGICILLNGVIPQDQSIVRTSLAVLGKGCLAASFNCIFLYTGELYPTMIRQTGMGMGSTMARVGSIVSPLVSMTAELYPSMPLFIYGAVPVAASAVTVLLPETLGQPLPDTVQDLESRWAPTQKEAGIYPRKGKQTRQQQEHQKYMVPLQASAQEKNGL
B1 gave a Km of 3.95 µM.
